Results on ten sequences are retold here after a protein production outcome set (Wang et al. 2014).

This series in a line: label from the status in PepcDB records.

Turning to “MLIEIPNVFSKQEVSHLREQLDARRWIDGNQTSGAMATTRKRNQQLDKDDPVAVALGQQIMDRLLAHPQFVSAALPLQFYPPLFNRYQGGETFGYHIDNAIRSTPDGMIRTDLSATLFLSEPENYQGGELVIQDTYGQQSIKLSAGSLVLYPSSSLHQVTPVLSGERTAAFMWLQSMVRDEGQRRLLFQLDQSIQSLTAQTAAEQELFNLSGVYHNLLRRWSEL”, the protein production entry is “not failed”.
As for “MLIGIDLGTTNSAVALWHEGEARLVPNSLGALLTPSAVSVLQDGTTLVGAAAFERMAAKDGAAATSFKRLLGTDRKVRLGRKEFSAEDLSALVLQSLCADVEAHTGERPTEAVITVPAYFNDRQRKATRRAGELAGLSVRRLINEPTAAALAFGLKDKAEREPFLVFDLGGGTFDVSIVEMFEGIVEVRASAGDNRLGGDDFNGALAMAVKGRLDPDERLATLGEARAQALLLQAAERTRRALTDAPEAEFAVTAGDERLSTTVTASEFEAQAEGLLRRLRDPVVRALRDSQIDAASLSEIVLVGGATRMPLVRKAITRLFGRFPNASVHPDHAVALGAAIQGGLIARDGGLEEIRITDVCPFTLGIETAEHSVRGTIQQGLFSPIIERNTPVPVSRSGVYSTMGDGQKQIAVHIYQGEAREVSGNVKLGTLSVPVPSRPAGEVSIDVRFSYDSSGLLEVDVEVPLTGTRHNLVIIDEEDRKAAKDLDARRKALAALKHHPREEAANQLLLARAERCYEEFLGDVRAVIGGRTLSFTTALDSQDPRRIADAAAELAELLDMLEANPVL”, the protein production entry is on record as “failed”.
In the case of “MLIGPYTHDAFMEEARKFHGYPAPGLIIGGYMVEMARRALPEGILFDAISETGQCLPDAVQMLTPCTIGNGWLRIRNFGLYALSLFDKHTGVGVRVHIDSQKLERFPEIKAWFLKLKPKREQDTERLQQEIREAAFDLLTLRPVTIRPDALGHGGKGGTIVACPLCGEYHPSAFGGICRSCQGESPYEVGPGLSFPGQPELRAVPVEEAVGKHALHDMTRIVPGESKGAEFVAGQELGAGDVCRLQMMGRNRVYVREETGDMQGWVHEDEAARAFGELMPGDGIEPEGPVREGKINFRATRDGVLVVDTRRLEQFNLVPDVMCATRHTHGVVLAGTRVAGTRAIPLYLSTLNLAKATTLLEGGPLFSVAPMRKAKVGVLVTGTEVFRGIIEDKFAPIITQKANQLGCDMAGTVIAPDDAPLITRGVHDLLAAGADLIVTTAGLSVDPDDMTRKGLLDAGLTEMLHGVPVLPGTMTLIGRIGGAQVIGVPACALFFKTTALDLLLPRLLAGLSVTRLDLARMGHGGLCMECRSCSFPKCPFGRG” it was “failed”.
In the case of “MLIIAILCLGLLVAQGVASLILLSRLVKGARRRSPLAPVFLPEEGVRNVSVVVPTLNEAARVTPCLLGLAQQGPPLREILVVDSRSTDGTQAVVQARQKDNPRLQLLTDDPLPDNWVGRPWALNYGFRHSDPASEWILGIDADTQPQPGLVASVVQAAEEENYDILSLSPQFILQSPGEWWLQPALLMTLLYRFESAGVREQAPETVMANGQCFLCRRLVLEALGGYELAARSFCDDVTLARVAAQRGYRVGFLDGANLIRVRMYEGIGETWREWGRSLDLKDATVPARLWAEVIFLLLVQGLPILFFSLLLMLWGEDFDFLTLRLAIALNGFLLLVRWGMLLAIYPSYYRPSEKGAWSYWLSPLADPLAVTRIIISASQTPKQWRGRIYPGAS” it was “failed”; in that of “MLIIFASGFALRAGTVTVAGVYSEAHYQPLMYDMDSYYNLRLASNLLNEGELSEGGWDRYSYYPPGVPLDYPPLLPHLTVTLYLLFTWLLPGLTDTAFWLPAIIAPLAGVAVFAAARSLDCDDVSATTAGLLATAAPFYFMRTIPGFYDTDMFNLVLPLAILLTLHLSLRDGDWRMAVLSGALMGVFAAAWNGWQLIYSIMALSVILHSLLYRRREPLIFLITSTLLIVLMDPRAIPSIPVGLMKIPVARADPFPDPYANITELQRPGFDDVLMALGPGLLLAGLAGFRSLFRDWRDSMVLPVIILWTLTGAASLLWGIRFSELLTAPLLITSALFLADLGTASRVPPGFRRKLHVAVAIMVVLPSLIISTGQYSALHPRVDDGLLDAADYIRAKTPPDTVVISNWVHGHFFAFMARRPVNFDGRLAYIETAAKRGPGYPLDPRIPGVYREYWHDPGPNDHGPHLADEILSMLASSGDEAYLEVLNATGDPAGSAVILGDVLAVDGSSRAEYLQDRGLDPVASGRVASTLSRRSGYVLVTCDRLIDKGYWILYYGNWNFTGKTRKPVYSTGSIVQGWPLRTSDGLLWDGERISFNGLRVSELYLVDGGVRKVEGDPQGGLVAFVLYDRNRTVVLERGYEDSMFARLVLLGDGGGVFRAVMRSRDVTVWEPIRDWNT”, “failed”.
In the case of “MLIILFLIQMILIVKALGLKGLFIFLALIFGLFVLCKVSLKVKLPRNKYSKVTWEDMPWLYDGVARMANKARISTPNIYIEDNPIPTAYSFQNSIVLSAGLLEILNEEEVLAVAAHEIGHIKNGDTVLFPLLRYGKYIMGIITAIIVIFATGFITKVVSFLVFVIYAFSLLKFLRKREFLADRVALQIAEVPYALKSALEELKFYEEALKTKEMPLPTIQPSIRREEKREPQIFPLPSTHPSYDERIARIIAIVEMYRRLEFLN”, the protein production result is listed as “failed”.
In the case of “MLIILTGLPSVGKSTFSKAFSKKMAEKNIDNIILGTDLIRESFPVWKESYEEFIRDSNNYLIKEALENKFSVIVDDTNYYNSKRRDLMNIAKECDTNYVTIYLKAPLNLLLKRNIERGQKIPNEVIKNMYEKFDTPGTKYAWDLPDITVDTTEKIDYNEILNEILEINENKNLKIEEDKIPKSEPVESDLVKIDSLTRNIVGNLIKTGKIDKKDIKLLSEIRKSFLKDCKKIESEKLDFEKIEKDFLDYLNKNLK” it was “failed”; in that of “MLIKKNALSILKIVFPIAVLLFVIYQSKKELTNLSFKRTLMVINGLERTDLFMLVLIGLLAVAAMSLYDYVLKYSLRLSITNGKVFRVSWIANSFNNVLGFGGLAGVGLRMMFYKEHTKDHKALVKGIAWLTSSMLLGLSVFSIFVAARVLPVDEVIHEKPWLWAVVIGFALILPLSLAVSKIKDRKAGDEENADKVKNPIFAYIGASVVEWLMAGTRHLFCFVRYGHSCRYQVCVRGVRHCGDRRNDQPRAGRLRLV”, “failed”; in that of “MLIKLTGGTVYDPANGIDGQVRNLFIRDGRIVHSLNGATPDQEYDLRGKVVMAGAIDMHTHIGGGKVTIARNLLPEDHRADPEPRRGLMRAGCGHAAPSTLTTGYRYAEMGYTAGFEPAVLPINARQAHMEMADVPLLDVGGYVMLGSDDFFLRLLSAGSDQKLINDYVAWTIRSAKAIGIKVVNPGGISAFKFNQRMLDLDEKHVYYGVTPRQILKSLARAVHELGVPHPLHVHGCNLGVPGNVETTLNTISGIEGLPMHLTHIQFHSYGVEGDRKFSSGAARIAEAINANKNITIDVGQILFGQTVTASGDSMRQHANAGHAHPDKWVCMDIECDAGCGVVPFKYRDKNFVNALQWCIGLETFLLIDDPWRVFLTTDHPNGAPFTTYPHLIRLLMDKSFRNDMLATINPEAAALSTLGSIDREYSLYEIAIMTRAGAARLLGLTDRGHLGAGAAADITVYTDQADKEKMFTRPDYVFKDGELVVRNGEVVKVVWGNLHTVQPEFDNGIEARLRDYFDRYHTMKLDNFVINDWEIEGDGRSKILVHPCHQGTRSLEHHHHHH”, “failed”.
Regarding “MLILKNSMASPHPFPWPQRFTVMALTFAWGLSLPVLAQTKSAVQWYNDGVDKLAAQNFSGAIADFTESIKLNDQDADAYYNRGYAKHVLGQYQAAITDYNQAISLNPEFAYALGNRCYAYFLLSQYDKAIQDCSNAIEINPNYADFYVYRGNSQSQLGNETTAIADYNDAIRINAQHANAYYNRALTHNRLKQDQQALADYNQSIQLDPDSAEAYFNRGLTQYRLGDEPKAIADLTKAAELFNAQEKKDMAQKAEAILTQIRAIDA”, the protein production entry is “failed”.
